Publication PMC10502629

Key:
[1] = biological target: SC-A0A4 (SpyCatcher fused to the N-terminus of the AaLS homologue A0A497XTC1 of Hydrogenivirga caldilitoris) (Hydrogenivirga caldilitoris); test: covalent SpyCatcher/SpyTag conjugation read by SDS-PAGE; purified SC-scaffolds incubated with ST-OVAT in conventional buffer without any enzyme (4 °C, 16 h in Figure 3e); conjugates purified by SEC, SDS-PAGE with Coomassie staining; reactivity kept after heating at 75 °C or 5 x …
[2] = biological target: SC-AaLS (SpyCatcher fused to the N-terminus of Aquifex aeolicus lumazine synthase) (Aquifex aeolicus); test: as above

percent conjugated [1]: 100%
percent conjugated [2]: 100%
Substance: ST-OVAT (SpyTag fused to the N-terminus of ovalbumin T epitopes) (peptide)
